Measurements reported in US20250313605A1.
*1 amine or outer side, *2 acyl side, *3 side chain or, on linkers, in order; H or OH if unused. Where no end group is shown, it is not given here. Side-chain parts run from the residue outwards. [ ]: non-standard residue; d: D form. The star is where a group is joined. C20 diacid = O=C(O)CCCCCCCCCCCCCCCCCCC(=O)*; γGlu = O=C(O)[C@H](CCC(=O)[*:2])N[*:1]; αMeL = CC(C)C[C@](C)(N)C(=O)O; αMeK = C[C@](N)(CCCCN)C(=O)O; AEEA = NCCOCCOCC(=O)O; Aib = CC(C)(N)C(=O)O

T1: human GLP-1 receptor (human), P43220
T1 chain: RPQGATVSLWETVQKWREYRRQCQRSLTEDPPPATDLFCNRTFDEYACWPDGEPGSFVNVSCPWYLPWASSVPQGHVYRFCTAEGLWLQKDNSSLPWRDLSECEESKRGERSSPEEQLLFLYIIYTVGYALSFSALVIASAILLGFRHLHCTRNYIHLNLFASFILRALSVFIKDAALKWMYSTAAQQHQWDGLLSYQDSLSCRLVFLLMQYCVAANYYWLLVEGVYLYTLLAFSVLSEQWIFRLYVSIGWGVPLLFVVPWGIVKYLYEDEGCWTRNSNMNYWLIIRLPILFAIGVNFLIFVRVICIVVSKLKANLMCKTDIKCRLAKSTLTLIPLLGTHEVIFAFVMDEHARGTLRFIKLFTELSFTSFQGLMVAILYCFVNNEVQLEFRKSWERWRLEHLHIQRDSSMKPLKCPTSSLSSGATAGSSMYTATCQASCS

T2: human GIP receptor (human), P48546
T2 chain: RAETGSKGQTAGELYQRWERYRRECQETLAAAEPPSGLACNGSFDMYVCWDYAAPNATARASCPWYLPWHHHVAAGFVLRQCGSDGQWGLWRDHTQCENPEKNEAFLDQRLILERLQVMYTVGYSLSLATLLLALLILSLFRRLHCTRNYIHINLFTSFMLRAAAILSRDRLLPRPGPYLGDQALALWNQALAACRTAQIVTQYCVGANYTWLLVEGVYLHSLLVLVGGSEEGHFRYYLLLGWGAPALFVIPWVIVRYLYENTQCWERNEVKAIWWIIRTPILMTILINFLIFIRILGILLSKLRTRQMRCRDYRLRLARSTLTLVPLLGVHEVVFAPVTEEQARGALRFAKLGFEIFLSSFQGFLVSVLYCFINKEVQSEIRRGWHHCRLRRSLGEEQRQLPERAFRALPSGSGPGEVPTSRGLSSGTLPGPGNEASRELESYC


Columns and labels:
[1] = target: T1, human GLP-1 receptor (human), P43220; assay: cell-based or functional assay
[2] = target: human glucagon receptor (human), P47871; assay: cell-based or functional assay
Chain of human glucagon receptor (human), P47871 (P47871 26-477): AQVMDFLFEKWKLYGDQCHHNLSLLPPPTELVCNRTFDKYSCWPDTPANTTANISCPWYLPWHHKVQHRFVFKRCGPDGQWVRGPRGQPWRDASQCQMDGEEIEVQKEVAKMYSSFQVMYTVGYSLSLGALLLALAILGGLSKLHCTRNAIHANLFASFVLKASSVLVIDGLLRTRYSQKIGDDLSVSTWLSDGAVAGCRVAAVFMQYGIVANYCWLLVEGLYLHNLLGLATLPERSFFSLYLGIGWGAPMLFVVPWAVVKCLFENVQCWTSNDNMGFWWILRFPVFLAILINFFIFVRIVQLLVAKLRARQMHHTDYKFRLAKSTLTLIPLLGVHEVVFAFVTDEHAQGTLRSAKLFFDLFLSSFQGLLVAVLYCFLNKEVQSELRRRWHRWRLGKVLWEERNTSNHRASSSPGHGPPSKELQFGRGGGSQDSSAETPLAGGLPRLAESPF

[3] = target: T2, human GIP receptor (human), P48546; assay: cell-based or functional assay
[4] = target: T1, human GLP-1 receptor (human), P43220; assay: radioligand competition SPA, HEK293 membranes
[5] = target: human glucagon receptor (human), P47871; assay: radioligand competition SPA, HEK293 membranes
[6] = target: T2, human GIP receptor (human), P48546; assay: radioligand competition SPA, HEK293 membranes

Binder | cAMP EC50 (0.1% casein) [1] [nM] | cAMP EC50 (FBS and BSA present) [1] [nM] | cAMP EC50 (0.1% casein) [2] [nM] | cAMP EC50 (FBS and BSA present) [2] [nM] | cAMP EC50 (0.1% casein) [3] [nM] | cAMP EC50 (FBS and BSA present) [3] [nM] | Ki [4] [nM] | Ki [5] [nM] | Ki [6] [nM]
Y[Aib]QGTFTSDYSI[αMeL]LDKK([AEEA-γGlu-C20 diacid])AQHAFIEYLLEGGPSSGAPPPS-NH2 [Example 10] | 0.143 | 19.3 | 0.123 | 8.42 | 0.0928 | 4.3 | 12 | 7.37 | 0.118
Y[Aib]QGTFTSDYSI[αMeL]LDKK([AEEA-AEEA-γGlu-C20 diacid])AAQAFIEYLLE[Aib]GPSSGAPPPS-NH2 (N-terminus assumed; SMILES CC[C@H](C)[C@H](NC(=O)[C@H](Cc1ccccc1)NC(=O)[C@H](C)NC(=O)[C@H](CCC(N)=O)NC(=O)[C@H](C)NC(=O)[C@H](C)NC(=O)[C@H](CCCCNC(=O)COCCOCCNC(=O)COCCOCCNC(=O)CC[C@H](NC(=O)CCCCCCCCCCCCCCCCCCC(=O)O)C(=O)O)NC(=O)[C@H](CCCCN)NC(=O)[C@H](CC(=O)O)NC(=O)[C@H](CC(C)C)NC(=O)[C@](C)(CC(C)C)NC(=O)[C@@H](NC(=O)[C@H](CO)NC(=O)[C@H](Cc1ccc(O)cc1)NC(=O)[C@H](CC(=O)O)NC(=O)[C@H](CO)NC(=O)[C@@H](NC(=O)[C@H](Cc1ccccc1)NC(=O)[C@@H](NC(=O)CNC(=O)[C@H](CCC(N)=O)NC(=O)C(C)(C)NC(=O)[C@@H](N)Cc1ccc(O)cc1)[C@@H](C)O)[C@@H](C)O)[C@@H](C)CC)C(=O)N[C@@H](CCC(=O)O)C(=O)N[C@@H](Cc1ccc(O)cc1)C(=O)N[C@@H](CC(C)C)C(=O)N[C@@H](CC(C)C)C(=O)N[C@@H](CCC(=O)O)C(=O)NC(C)(C)C(=O)NCC(=O)N1CCC[C@H]1C(=O)N[C@@H](CO)C(=O)N[C@@H](CO)C(=O)NCC(=O)N[C@@H](C)C(=O)N1CCC[C@H]1C(=O)N1CCC[C@H]1C(=O)N1CCC[C@H]1C(=O)N[C@@H](CO)C(N)=O) [Example 5] | 0.147 | 22.3 | 0.0226 | 1.47 | 0.0757 | 4.86 | 36.7 | 0.422 | 0.179
Y[Aib]QGTFTSDYSI[αMeL]LDKK([AEEA-AEEA-γGlu-C20 diacid])AQHAFIEYLLEGGPSSGAPPPS-NH2 [Example 7] | 0.109 | 15.5 | 0.18 | 14.2 | 0.0798 | 4.38 | 21.4 | 16.3 | 0.11
Y[Aib]QGTFTSDYSI[αMeL]LDKK([γGlu-γGlu-C20 diacid])AQHAFIEYLLEGGPSSGAPPPS-NH2 (N-terminus assumed; SMILES CC[C@H](C)[C@H](NC(=O)[C@H](Cc1ccccc1)NC(=O)[C@H](C)NC(=O)[C@H](Cc1c[nH]cn1)NC(=O)[C@H](CCC(N)=O)NC(=O)[C@H](C)NC(=O)[C@H](CCCCNC(=O)CC[C@H](NC(=O)CC[C@H](NC(=O)CCCCCCCCCCCCCCCCCCC(=O)O)C(=O)O)C(=O)O)NC(=O)[C@H](CCCCN)NC(=O)[C@H](CC(=O)O)NC(=O)[C@H](CC(C)C)NC(=O)[C@](C)(CC(C)C)NC(=O)[C@@H](NC(=O)[C@H](CO)NC(=O)[C@H](Cc1ccc(O)cc1)NC(=O)[C@H](CC(=O)O)NC(=O)[C@H](CO)NC(=O)[C@@H](NC(=O)[C@H](Cc1ccccc1)NC(=O)[C@@H](NC(=O)CNC(=O)[C@H](CCC(N)=O)NC(=O)C(C)(C)NC(=O)[C@@H](N)Cc1ccc(O)cc1)[C@@H](C)O)[C@@H](C)O)[C@@H](C)CC)C(=O)N[C@@H](CCC(=O)O)C(=O)N[C@@H](Cc1ccc(O)cc1)C(=O)N[C@@H](CC(C)C)C(=O)N[C@@H](CC(C)C)C(=O)N[C@@H](CCC(=O)O)C(=O)NCC(=O)NCC(=O)N1CCC[C@H]1C(=O)N[C@@H](CO)C(=O)N[C@@H](CO)C(=O)NCC(=O)N[C@@H](C)C(=O)N1CCC[C@H]1C(=O)N1CCC[C@H]1C(=O)N1CCC[C@H]1C(=O)N[C@@H](CO)C(N)=O) [Example 9] | 0.0931 | 9.76 | 0.139 | 6.32 | 0.0522 | 4.17 | 11.5 | 8.27 | 0.126
Y[Aib]QGTFTSDYSILLDKK([AEEA-γGlu-C20 diacid])AQ[Aib]AFIEYLLA[Aib]GPSSGAPPPS-NH2 (N-terminus assumed; SMILES CC[C@H](C)[C@H](NC(=O)[C@H](Cc1ccccc1)NC(=O)[C@H](C)NC(=O)C(C)(C)NC(=O)[C@H](CCC(N)=O)NC(=O)[C@H](C)NC(=O)[C@H](CCCCNC(=O)COCCOCCNC(=O)CC[C@H](NC(=O)CCCCCCCCCCCCCCCCCCC(=O)O)C(=O)O)NC(=O)[C@H](CCCCN)NC(=O)[C@H](CC(=O)O)NC(=O)[C@H](CC(C)C)NC(=O)[C@H](CC(C)C)NC(=O)[C@@H](NC(=O)[C@H](CO)NC(=O)[C@H](Cc1ccc(O)cc1)NC(=O)[C@H](CC(=O)O)NC(=O)[C@H](CO)NC(=O)[C@@H](NC(=O)[C@H](Cc1ccccc1)NC(=O)[C@@H](NC(=O)CNC(=O)[C@H](CCC(N)=O)NC(=O)C(C)(C)NC(=O)[C@@H](N)Cc1ccc(O)cc1)[C@@H](C)O)[C@@H](C)O)[C@@H](C)CC)C(=O)N[C@@H](CCC(=O)O)C(=O)N[C@@H](Cc1ccc(O)cc1)C(=O)N[C@@H](CC(C)C)C(=O)N[C@@H](CC(C)C)C(=O)N[C@@H](C)C(=O)NC(C)(C)C(=O)NCC(=O)N1CCC[C@H]1C(=O)N[C@@H](CO)C(=O)N[C@@H](CO)C(=O)NCC(=O)N[C@@H](C)C(=O)N1CCC[C@H]1C(=O)N1CCC[C@H]1C(=O)N1CCC[C@H]1C(=O)N[C@@H](CO)C(N)=O) [Example 4] | 0.18 | 10.4 | 0.0674 | 2.49 | 0.0648 | 1.55 | 3.54 | 2.55 | 0.0374
Y[Aib]QGTFTSDYSI[αMeL]LDKK([AEEA-AEEA-γGlu-C20 diacid])AAQAFIEYLLEGGPSSGAPPPS-NH2 [Example 6] | 0.142 | 21.2 | 0.0282 | 1.99 | 0.274 | 7.41 | 36.7 | 0.835 | 0.249
Y[Aib]QGTFTSDYSILLDKK([AEEA-AEEA-γGlu-C20 diacid])AQ[αMeK]AFIEYLLEGGPSSGAPPPS-NH2 (N-terminus assumed; SMILES CC[C@H](C)[C@H](NC(=O)[C@H](Cc1ccccc1)NC(=O)[C@H](C)NC(=O)[C@](C)(CCCCN)NC(=O)[C@H](CCC(N)=O)NC(=O)[C@H](C)NC(=O)[C@H](CCCCNC(=O)COCCOCCNC(=O)COCCOCCNC(=O)CC[C@H](NC(=O)CCCCCCCCCCCCCCCCCCC(=O)O)C(=O)O)NC(=O)[C@H](CCCCN)NC(=O)[C@H](CC(=O)O)NC(=O)[C@H](CC(C)C)NC(=O)[C@H](CC(C)C)NC(=O)[C@@H](NC(=O)[C@H](CO)NC(=O)[C@H](Cc1ccc(O)cc1)NC(=O)[C@H](CC(=O)O)NC(=O)[C@H](CO)NC(=O)[C@@H](NC(=O)[C@H](Cc1ccccc1)NC(=O)[C@@H](NC(=O)CNC(=O)[C@H](CCC(N)=O)NC(=O)C(C)(C)NC(=O)[C@@H](N)Cc1ccc(O)cc1)[C@@H](C)O)[C@@H](C)O)[C@@H](C)CC)C(=O)N[C@@H](CCC(=O)O)C(=O)N[C@@H](Cc1ccc(O)cc1)C(=O)N[C@@H](CC(C)C)C(=O)N[C@@H](CC(C)C)C(=O)N[C@@H](CCC(=O)O)C(=O)NCC(=O)NCC(=O)N1CCC[C@H]1C(=O)N[C@@H](CO)C(=O)N[C@@H](CO)C(=O)NCC(=O)N[C@@H](C)C(=O)N1CCC[C@H]1C(=O)N1CCC[C@H]1C(=O)N1CCC[C@H]1C(=O)N[C@@H](CO)C(N)=O) [Example 8] | 0.117 | 9.39 | 0.12 | 6.24 | 0.114 | 2.23 | 29.4 | 30.4 | 0.0958
